The assay has as its target T1, KaiC S431E;T432A (KaiC-EA) (UniProt Q79PF4 1-519, S431E | T432A).
T1 sequence (looked up): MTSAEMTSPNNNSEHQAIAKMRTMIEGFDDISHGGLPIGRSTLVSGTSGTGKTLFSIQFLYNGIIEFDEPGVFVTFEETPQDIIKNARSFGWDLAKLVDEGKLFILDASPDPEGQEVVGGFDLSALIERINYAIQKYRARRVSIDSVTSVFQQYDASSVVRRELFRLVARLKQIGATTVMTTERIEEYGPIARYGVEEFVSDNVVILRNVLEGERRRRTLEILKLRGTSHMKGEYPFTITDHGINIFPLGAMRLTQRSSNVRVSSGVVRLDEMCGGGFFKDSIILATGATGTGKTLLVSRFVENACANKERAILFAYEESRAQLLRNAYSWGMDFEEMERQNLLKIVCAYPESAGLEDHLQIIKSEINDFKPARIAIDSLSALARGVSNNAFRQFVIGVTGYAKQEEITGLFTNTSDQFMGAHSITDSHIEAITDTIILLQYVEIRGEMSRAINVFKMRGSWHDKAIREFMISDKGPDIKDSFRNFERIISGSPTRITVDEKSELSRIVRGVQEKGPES
Briefly: co-IP.

B1: wildtype KaiB-FLAG (natural protein, UniProt Q79PF5 1-102, looked up)
chain: MSPRKTYILKLYVAGNTPNSVRALKTLKNILEVEFQGVYALKVIDVLKNPQLAEEDKILATPTLAKVLPLPVRRIIGDLSDREKVLIGLDLLYGELQDSDDF
Turning to B1, the binding result is on record as “binds”.

These data come from publication PMC9478674 (Proceedings of the National Academy of Sciences of the …, 2022).
